Patent publication US20030235860A1, “Interactions between AR, ER, TR2, and TR4” (priority 1999, published 2003)
No end group written: not given here.

T1: GST-TR4 (Homo sapiens, UniProt P49116)
T1 construct: which used the full length of TR4 containing AF-1; made in house
T1 sequence (P49116 1-615 isoform P49116-2 N175S/W419R/A428G/K503N/L504W/A613V): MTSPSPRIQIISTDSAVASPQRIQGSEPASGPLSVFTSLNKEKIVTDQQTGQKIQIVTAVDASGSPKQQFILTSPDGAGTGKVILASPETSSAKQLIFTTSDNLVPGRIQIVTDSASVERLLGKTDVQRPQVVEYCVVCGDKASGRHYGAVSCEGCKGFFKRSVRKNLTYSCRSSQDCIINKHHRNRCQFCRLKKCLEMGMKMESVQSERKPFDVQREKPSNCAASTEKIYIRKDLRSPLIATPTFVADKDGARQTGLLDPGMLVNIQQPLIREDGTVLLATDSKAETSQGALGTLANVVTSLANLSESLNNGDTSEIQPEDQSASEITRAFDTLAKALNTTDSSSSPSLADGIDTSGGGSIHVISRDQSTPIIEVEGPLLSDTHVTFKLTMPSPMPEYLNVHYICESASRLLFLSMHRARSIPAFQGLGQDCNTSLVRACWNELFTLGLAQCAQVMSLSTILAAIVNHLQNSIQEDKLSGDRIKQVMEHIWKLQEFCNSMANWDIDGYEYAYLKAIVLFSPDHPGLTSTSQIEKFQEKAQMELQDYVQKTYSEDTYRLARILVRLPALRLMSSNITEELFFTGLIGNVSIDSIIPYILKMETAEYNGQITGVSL

T2: ER homodimer (Homo sapiens, UniProt P03372)
T2 sequence (P03372 312-595): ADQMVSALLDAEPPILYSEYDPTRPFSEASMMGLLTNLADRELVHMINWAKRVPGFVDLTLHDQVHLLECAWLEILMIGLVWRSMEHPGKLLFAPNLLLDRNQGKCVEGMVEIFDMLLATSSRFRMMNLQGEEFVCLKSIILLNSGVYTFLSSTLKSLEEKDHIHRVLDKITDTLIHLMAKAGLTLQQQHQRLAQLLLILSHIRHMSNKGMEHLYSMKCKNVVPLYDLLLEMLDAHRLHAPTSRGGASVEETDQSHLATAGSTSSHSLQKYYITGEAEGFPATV

B1: TR2: human testicular orphan nuclear receptor 2, 603 amino acids (protein, UniProt P13056 1-603, looked up)
chain: MATIEEIAHQIIEQQMGEIVTEQQTGQKIQIVTALDHNTQGKQFILTNHDGSTPSKVILARQDSTPGKVFLTTPDAAGVNQLFFTTPDLSAQHLQLLTDNSPDQGPNKVFDLCVVCGDKASGRHYGAVTCEGCKGFFKRSIRKNLVYSCRGSKDCIINKHHRNRCQYCRLQRCIAFGMKQDSVQCERKPIEVSREKSSNCAASTEKIYIRKDLRSPLTATPTFVTDSESTRSTGLLDSGMFMNIHPSGVKTESAVLMTSDKAESCQGDLSTLANVVTSLANLGKTKDLSQNSNEMSMIESLSNDDTSLCEFQEMQTNGDVSRAFDTLAKALNPGESTACQSSVAGMEGSVHLITGDSSINYTEKEGPLLSDSHVAFRLTMPSPMPEYLNVHYIGESASRLLFLSMHWALSIPSFQALGQENSISLVKAYWNELFTLGLAQCWQVMNVATILATFVNCLHNSLQQDKMSTERRKLLMEHIFKLQEFCNSMVKLCIDGYEYAYLKAIVLFSPDHPSLENMEQIEKFQEKAYVEFQDYITKTYPDDTYRLSRLLLRLPALRLMNATITEELFFKGLIGNIRIDSVIPHILKMEPADYNSQIIGHSI
modifications: full-length
notes: human testicular orphan nuclear receptor 2, 603 amino acids
B2: TR4: human testicular orphan nuclear receptor 4, SEQ ID NO:16; expressed from plasmid or in vitro translated (protein)
chain: T1 sequence (P49116 1-615 isoform P49116-2 N175S/W419R/A428G/K503N/L504W/A613V)

Tests used:
[1] = target: T1, GST-TR4; test: GST-TR4 pull-down assay; assay type: binding; settings: for Interaction with GST-TR4 fusion protein: [35S]-methionine labeled proteins, absence of E2, Example 3; for Interaction with GST-TR4 in pull-down assay: in vitro translated 35S methionine-labeled proteins, Example 1
Procedure: GST-TR4 fusion protein and GST control protein were purified as instructed by the manufacturer (Pharmacia). […] of in vitro translated 35S methionine-labeled proteins were used to perform a pull-down assay as described previously. Cacailles, et al., EMBO 14, 3741-3751 (1995).
Using a GAL4-TR4 fusion protein as bait, the yeast two-hybrid system was used to isolate several potential TR4 associated proteins. […] A GST-TR4 fusion protein pull-down assay was performed to further confirm the result. GST-TR4 fusion protein and GST control protein were purified as instructed by the manufacturer (Pharmacia).
A GST pull-down assay was performed according to the methods described previously (Lee, Y. et al. (1999) Proc. Natl. Acad Sci. USA. 96(26) 14724-9).
Briefly, the GST fusion protein and GST control protein were expressed in an Escherichia coli strain BL21 (DE3) pLys bacterial culture and recovered on glutathione-Sepharose-4B beads. Equal amounts of GST fusion protein bound to glutathione-Sepharose-4B beads were incubated for 2 h at 4° C. with 5 μl of in vitro translated [^35S]methionine-labeled protein in a total volume of 100 µl of incubation buffer (20 mM HEPES/pH 7.9, 150 mM KCl, 5 mM MgCl2, 0.5 mM EDTA, 0.5 mM dithiothreitol, 0.1% Nonidet P-40, 1 mg/ml bovine serum albumin, and 10% glycerol), and protease inhibitor mixture (1 mM phenylmethylsulfonyl fluoride, 1 μg/ml aprotinin, leupeptin, and pepstatin). The beads were then washed three times with wash buffer (20 mM Tris/pH 8.0, 100 mM NaCl, 1 mM EDTA, and 0.5% Nonidet P-40), boiled in 2×SDS sample buffer, loaded onto SDS-polyacrylamide gels, and visualized by autoradiography.

[2] = target: T2, ER homodimer; test: ER homodimer formation, competition GST pull-down (GST-ER-LBD with [35S]-ER); settings: for ER homodimer formation (GST-ER-LBD with [35S]-ER): Example 2, FIG. 16B

Molecule	Interaction with GST-TR4 fusion protein [1]	Interaction with GST-TR4 in pull-down assay [1]	ER homodimer formation (GST-ER-LBD with [35S]-ER) [2]	ER-ER homodimerization (GST-ER-LBD with [35S] ER) ([2]; increasing amounts of TR4, Example 3)
AR: androgen receptor, SEQ ID NO:31	binds well	physically interact		
ER-#6: interaction blocker, ER fragment aa 312-340, as HA-tagged peptide, expression plasmid or cleaved peptide (ADQMVSALLDAEPPILYSEYDPTRPFSEA; also: HA tag (position not given here); UniProt P03372 312-340, looked up, fragment)			rescued	
RXR: retinoid X receptor, another member of the steroid receptor superfamily	unable to interact	no interaction		
B1		physically interact	interrupted	
B2				inhibit
